Experimental data: the nanobody polyreactivity screen of Harvey et al. (2022)

Experiment: yeast display, Sf9 membrane polyspecificity reagent, FACS + sequencing; frameworks hold sequencing errors
Summary of the method: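 Galactose induction of a Saccharomyces cerevisiae BJ5465 synthetic nanobody display library ran 36–48 hours. The cells were then stained for 1 hour at 4 °C with 10% biotinylated, detergent-solubilized Sf9 membrane reagent, pulled down on streptavidin microbeads and FACS-sorted into low and high (top ~1%) gates on expression and reagent-binding fluorescence. Labels for polyreactivity follow the gate of origin.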

Sequence | polyreactivity (PSR sort gate)
QVQLVESGGGLVQAGGSLRLSCAASGGTFDTYAMGWYRQAPGKERELVAGIDWSGGSTYYADSVKGRFTISRDYAKNTVYLQMNSLKPEDTAVYYCAADFYYPSQMDYWGQGTQVTVSS | low polyreactivity
QVQIGESGGGLVQAGGSLRLSCAASGSIIVGYAMGWYRQAPGKEREVVAAISKRGTSTYYADSVKGRFTISRDNAKNTVYLQMNSLKPEETAVYDCNALDLVNHGWTERLDQDYYYWGQGTQVTVSS | high polyreactivity
QVQLVESGGGLVQAGGSLRLTCAASGFIIKFYDMGWYRQAPGKERELVATITFSSGTTYYADSVKGRFTISRDNAKNTVYLQMNSLKPEDTAVYYCAAYTLPAWPYDGPAGPRYDYWGQGTQVTVSS | low polyreactivity
QVQLVESGGGLVQAGGSLRLSCAASGLIFNLNAMGWYSPAPGKEREFVATITGIGGSTYYADSVKGRFTISRDNAKNTVYLQMNSLKPEDTAVYYCAADAWFVPYNYWGQGTQVTVSS | low polyreactivity
QVQHVESGGGLVQAGGSLRLSCAASGRIFRYNAMGWYRQAPGKERELVAAITNGGSTNYADSVKGRFTISRDNAKNTVYLQMNSLKPEDTAVYYCNAQGRRYSQRYYYWGQGTQVTVSS | high polyreactivity
QVQLVESCGGLVQAGGSLRLSCAASGLIIRWYAMGWYRQAPGKERELVAAITRAGSTYYADSVKWRFTISRDNAKNTVYLQMNSLNPEDTAVYYCAADTNWSPGYIMYYRSDYWGQGTQVTVSS | low polyreactivity
QVQLVESGGGLVQAGGSLRLSCAASGRTSYYAMGWYRQAPGKERELVAAINSGDSTTYADSVKGRFTISRDNAKNTVYLQMNSLKPEDTAVYYCATALYDWYSLEFDYWGQGTQVTVSS | low polyreactivity
QVQLVESGGGLVQAGGSLRISCAASGSIFGYYAMGWYRHSPGTERELVAAISWSDGSTYYADSVKGRFTISRDNAKNTVYLQMNSLKPEDTAVYYCAARFTPYITSDDGHYDYWGQGTQVTVSS | low polyreactivity
QVQLVESGGGLVQAGGSLRLSCAATGFIFPLYAMGWYRQAPGKQSELVAAITWRGDTTSYADSVKGRFTISRDNAKNTVYLQMNSLKPVDPAVYYCAADSYRYRPGYGPVLYDYWGQGTQVTVSS | high polyreactivity
QVQLVESGGGLVHAGGSLRLSCAASGFTFRSYAMGWYRQAPGKERELVAAISWSGGSTYYADSVKGRYTISRDNAKNTVYLQMNSLKPEDTAVYYCAAVRVSKYDYWGQGTQVTVSS | high polyreactivity
QVQLVESGVCLVQAGGSLRLSCAASGRIFYYYTMGWYRQAPGKERELVAAITSGGSTYYADSVKGSFTISRDNAKNTVYLQMNSLKPEDTAVYYCNAEFDDKYDYWGQGTQVTVSS | low polyreactivity
QVQLVESGGGLVQAGGSLRLSCAASGSTFHPNAMGWYRQAPGKERELVAISSGDDTYYADSVKGRFTISRDIAKNTVYLQMKSLKPEDTAVYYCAAEYSFIYYWGQGTQVTVSS | low polyreactivity
QVQLVESGGGLVQAGGSLRLSCAASGSIIAANAMGWYRQAPGKERELVAAITFDSGSTHYADSVKGRFTISRDNAKNTFYLQMNSLKPEDTAVYYCAVRDFNSDYDDWGQGTQVTVSS | low polyreactivity
QVQLVESGGGLVQAGGSLRLSCAASGFISDVYAMGWSRQAPGKEREWVAVITWRGSTYYADSVKGRFTISRDNAKYTVYLQMNSLKPEDTAVYYCAAESQGDWAFDYWGQGTQVTVSS | low polyreactivity
QVQLVESGGGLVQAGRSLRLSCAASGFTFLVYAMGWYRQAPGTERELVAAMSNGGSTNYADSVKGRFTITRDTAKNTVYLHMNSLKPEDTAVYYCAADDPRDHWYTAMDYWGQGTQVTVSS | low polyreactivity
QVQLVESGGGLVQAGGSLRLSCAASGFTFGSYVMGWYRQAPGKERELVADISIRGGSTYYADSVKGRFTISRDNAKNTVYLQMNSLKPEDTAVYYCNADPAFYYWEGIVGGADYDYWGQGTQVTVSS | low polyreactivity
QVQLVESGGGLVQAGGSLRLSCAASGPIFWGYAMGWYRQAPGKERELVAAITSGGNTNYADSVKGRFTISRDNAKNTVYLQMISLKPEDTAVSYCAKRTRPWRDFDYWGQGTQVTVSS | low polyreactivity
QVQLVESGGGLVQAGGSLRISCAASGFTFGPYAMGWYRQAPGKERELVAAISQSGGRTSYADSVKGRFTISRDNAKNTVYLQMNSLKPEDTAVYYCAKRAYGYRSIYRMDYWGQGTQVTVSS | high polyreactivity
QVQLVESGGGLVQAGGSLRLSCAASGSIFWPYAMGWYRQAPGKEREFVAAITWSGGSTYYADSVKGRFTISRDNAKNTVYLQMNSLKPEDTAVYYCAAEITWYYHDFGYWGQGTQVTVSS | high polyreactivity
QVQLVESGGGLVQAGGSLRLSCAASGSIFYDNAMGWYRQAPGKERELVAVISNSGRTDYADSVKGRFTISRDNAKNTVYLQMNSLKPEDTAVYYCAAVVQGTTVWWGYDYWGQGTQVTVSS | low polyreactivity
QVQLVESGGGLVQAGGSLRLSCAASGITSVDYAMRWYRQAPGKERELVAAITWSDSSTYYADSVKGRFTISRDNAKNTVYLQMNSLKPEDTAVYYCAAEYYFWGWEFDYWGQGTQVTVSS | high polyreactivity
QVQLVESGGGLVQAGGSLRLSCAASGSTLQVNAMGWYRQAPGKETELVATISFSGGSTYYADSVKGRFTISRDNAMNTVYLQMNSLKPEETAAYYCNADSFVSWYNQFWYQATYDYWGQGTKVTVSS | low polyreactivity

Sequence | polyreactivity (PSR sort gate)
QVQLVESGGCIVQAGGSLRLSCAASGRICYTNAMVWYRQAPGKERELVAVISWGGDTTYYADSVKGRFTISRDNANNTVYLQMNSLKPEDTAGYYCNADWGPPYEIYDSWGQGTQVTVSS | low polyreactivity
HVQLVESGGGLVQAGGSLRLSCAASGTFYKNAMGWYRQAPGKERELVAAISWRGGRTYADSVKGRFTISRDNAKNSVYLQMNSLKPEDTAVYYCNKRFYPEHYYWGQGTQVTVSS | high polyreactivity
QVQIVESGGGLVQAGGSLRLSCAASGRILWDYAMGWYRQATGKEWELVAAIDWSAGSTYYADSVKGRFTISRDTAKNTVYLQMNSLKPEDTAVYYCYIDYTYYYEDDFWGQGTQVTVSS | low polyreactivity
QVQLVESGGGLVQAGGSLRLSCAASGFTFPTYAMGWYRQAPGKERELVAAISTSGARTYYADSVKGRFTISRDNAKNTVYLQMNSLKPEDTAVYYCAVGSIYTIGFRKGYRFDYWGQGTQVTVSS | high polyreactivity
QVQLVESGGGVVQAGGSLRLSCAASGGTFGKYAMGWYRQAPGNEREFVAAISKSGGSTFYADSVKGRFTISRDNAKNTVYLQMNSLKPEDTAVYYCAVRWYYRGRSLYDYWGQGTQVTVSS | high polyreactivity
QVQLVESGGGLVQAGGSLRLSCAASGIIFRGYDMGWYRQAPGKERELVAVITDDGSTYYADSVKGRFTISRDNAKNTVYLQMNSLKPEDTAVYYCNADYLLGHWIWYDYWGQGTQVTVSS | low polyreactivity
QVQLVESGGGLVQAGGSLRLSCAASGRTFGQNAMGWYRPAPGKERELVAAISRGGSTYYADSVKGRFTISRDNAKNTVYLQMNSLKPEDTAVYYCAAAKKSGVYLRLNYWGQGTQVTVSS | high polyreactivity
QVQLVESGGGLVQAGGSLRLSCAASGNTFDGYDMGWYRQAPGKERELVAAITNTGASTYYADSVKGRFTISRDNAKNTVYLQMNSLKPEDTAVYYCIAQDSYPEDRHGMSYWGQGTQVTVSS | low polyreactivity
QVQLEESGGGLVQAGGSLRLSCAASGRIFYGNSMGWYRQAPGKERELVAAISKRGGSTYYADSVKGRFTISRDNAKNTVYLQMNSLKPEDTAVYYCAASYPTRAWEYDYWGQGTQVTVAS | high polyreactivity
QVQLVESGGGLVQAGGSLRLSCAASGRIFTNNAMGWYRPAPGKERELVAAISRSGGRTYYADSVKGRFTISRDNAKNTVYLQMNSLKPEDTAVYYCAAVHLYYGYNSPFTMDYWGQGTQVTVSS | high polyreactivity
QVQLVESGGGLVQAGGSLRLSCAASGSIFTPNAMGWYRQAPGKERELVAAISQSGGSTYYADSVKGRFTISRDNAMNTVYLQMNSLKPEDTAVYYCGASVRHRGYDYWGQGTQVTVSS | high polyreactivity
QVQLVESGGGLVQAGGSLRLSCAASGSIFIGNTMGWYRQAPGKERELVATIRRSGSRTYDADSVKGRFTISRDNAKNTVYLQMNSLKPEDTAVYYCAADRLRTSGYKTIYDYWGQGTQVTVSS | low polyreactivity
QVQLVESGGGLVQAGGSLRLSCAASGRIFPYYAMGWYRQAPGKERELVAAITSGGTTYYADSVKGRFTISRDNAKNTVYLQMNSLKPEDTAVYYCNAVGTPVKISTDRGYWGQGTQVTVSS | low polyreactivity
QVQLVESGGGLVQAGGSLRLSWAASGPTCGQLAMVWYRQAPGKERELVAAISYSGARTYYADSVKGRFTISRDNAKNTVDLQMNSLIPQDTAVKYCNAYSAYVNGNRRGLGYWGQGTHVTVSS | high polyreactivity
QVQLVESGGGLVQAGGSLRLSCAASGRNFDGYAMGWYRQAPGKERQLVAAISGGGNTKYADSVKGRFTISRDNAKNTVYLKMISLKPEDTAVYYCAARGYYYGYRFDSWGQGTQVTVSS | high polyreactivity
QVQLVESGGVLVQAGGSLRLSCAASGNIFVPYAMGWYRQAPGKERDLVAAISSRGGRTYYADSVKGRFTISRDNAKNTVYLQMNSLKPEDTAVFYCNKVAKSSVLTLDYWGQGTQVTVSS | high polyreactivity
QVQLVESGGGLVQAGGSLRLSCAASGSIFDYNGMGWYRQAPGKERELVAAISSGGSTNYADSVKGRFTISRDNAKNTVYLQMNSLKPEDTAVYYCAAVGRAKYYYWGQGTQVTVSS | low polyreactivity
QVHLVESGGGLVQAGGSRRLSCAASGRISTLNALGWYRQAPGKVWEFVAAISWRGGSTYYADSVKGRFTISRDNAKNTVYVQMNSLKPEDTAVYYCAARPYTLAFYRFGYWGQGTKVTVSS | high polyreactivity
QVQLVESGGGLVQAGGSLRLSCAASRLTFQQYAMGWYRQAPGKERELVAAITSDGASTNYADSVKGRFTISRDNAKNTVYLQMNSLKPEDTAVYYCAARRRSRQYRYDYWGQGTQVTVSS | high polyreactivity
QVQLVESGGGLVQAGGSLRLSCAASGSIFGSNAMGWYRQAPGKERELVAAISYRGGSTYYADSVKGRFTISRDNAKNTVYLQMNSLKPEDTAFYYCAKVSSYKPYDYWGLGTQVTVSS | low polyreactivity
QVQLVESGGGLVQAGGSLRISCAASGSTFYIYSMGWYRQAPGKERELVARISGSGGSTYYADSVKVRFTISRDYAKNTVYLQMNSLKPEDTAVYYCAADDIYKYYLYYAFPYYRYDYWGLGTQVTVSS | low polyreactivity
